Results reported in the supplement of paper PMC7877785.
± gives the uncertainty stated by the source.

Experiment: self-splicing fitness, log relative to wild type (ln ratio); higher = more splicing; Tetrahymena group I intron in knt gene, E. coli kanamycin selection, DiMSum; sequences stand for … in CUCUCU…GGAGGGAAAAGUUAUCAGGCAUGCACCUGGUAGCUAGUCUUUAAACCAAUAGAUUGCAUCGGUUUAAAAGGCAAGACCGUCAAAUUGCGGGAAAGGGGUCAACAGCCGUUCAGUACCAAGUCUCAGGGGAAACUUUGAGAUGGCCUUGCAAAGGGUAUGGUAAUAAGCUGACGGACAUGGUCCUAACCACGCAGCCAAGUCCUAAGUCAACAGAUCUUCUGUUGAUAUGGAUGCAGUUCACAGACUAAAUGUCGGUCGGGGAAGAUGUAUUCUUCUCAUAAGAUAUAGUCGGACCUCUCCUUAAUGGGAGCUAGCGGAUGAAGUGAUGCAACACUGGAGCCGCUGGGAACUAAUUUGUAUGCGAAAGUAUAUUGAUUAGUUUUGGAGUACUCGUGGUCG
Outline: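 Pooled colonies went to amplicon sequencing on an Illumina HiSeq 2500 after six replicate transformations. The plates were LB agar with 100 μg/mL carbenicillin, 50 μM IPTG and 0.2% rhamnose, with or without 25 μg/mL kanamycin, incubated overnight at 37°C or 30°C. The E. coli BL21(DE3) library had all eight P1ex-region intron nucleotides randomised, the intron placed in the knt kanamycin-resistance gene on pET-22b(+). DiMSum fitness is the error-weighted combination of replicate fold changes, kanamycin against none, normalised to wild type.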

Row | Sequence | self-splicing fitness (ln) (30 °C) | self-splicing fitness (ln) (37 °C)
1 | UGGUAGCAAUAUUACGGGAG | -3.82 ± 0.43 | -1.6 ± 0.13
2 | UGGUAGCAAUAUUACGGGCG | 0.0756 ± 0.11 | 0.475 ± 0.12
3 | UGGUAGCAAUAUUACGGUGG | -3.53 ± 0.2 | -1.94 ± 0.14
4 | UGGUAGCAAUAUUACGUAAA | -1.01 ± 0.099 | -0.497 ± 0.11
5 | UGGUAGCAAUAUUACGUACC | -2.93 ± 0.42 | -2.31 ± 0.49
6 | UGGUAGCAAUAUUACGUACU | 0.209 ± 0.34 | –
7 | UGUAAGCAAUAUUACGAAAG | -3.6 ± 0.25 | -2.75 ± 0.34
8 | UGUAAGCAAUAUUACGAACC | -0.477 ± 0.22 | 0.667 ± 0.32
9 | UGUAAGCAAUAUUACGAACG | 0.23 ± 0.13 | 0.542 ± 0.13
10 | UGUAAGCAAUAUUACGCAGA | -3.67 ± 0.42 | -1.72 ± 0.34
11 | UGUAAGCAAUAUUACGCGGG | -4.06 ± 0.29 | -0.563 ± 0.15
12 | UGUAAGCAAUAUUACGCUAA | -2.73 ± 0.21 | -0.75 ± 0.15
13 | UGUAAGCAAUAUUACGCUAG | -1.82 ± 0.1 | -0.0644 ± 0.099
14 | UGUAAGCAAUAUUACGGCCC | -2.98 ± 0.38 | –
15 | UGUAAGCAAUAUUACGGCGG | -0.367 ± 0.098 | -0.217 ± 0.12
16 | UGUAAGCAAUAUUACGGGGU | -3.75 ± 0.31 | -2.24 ± 0.28
17 | UGUAAGCAAUAUUACGGUCA | -0.349 ± 0.08 | 0.113 ± 0.12
18 | UGUAAGCAAUAUUACGGUUG | -1.14 ± 0.096 | -0.58 ± 0.1
19 | UGUAAGCAAUAUUACGUAUA | -1.21 ± 0.097 | -0.761 ± 0.12

Row | Sequence | self-splicing fitness (ln) (30 °C) | self-splicing fitness (ln) (37 °C)
20 | UGUAAGCAAUAUUACGUCAG | -1.14 ± 0.093 | -0.0311 ± 0.11
21 | UGUAAGCAAUAUUACGUGAU | -3.5 ± 0.18 | -2.05 ± 0.17
22 | UGUAAGCAAUAUUACGUGGA | -2.52 ± 0.25 | -1.78 ± 0.22
23 | UGUAAGCAAUAUUACGUGUA | -1.52 ± 0.077 | -0.97 ± 0.093
24 | UGUAAGCAAUAUUACGUUCC | -4.53 ± 0.33 | -0.21 ± 0.19
25 | UGUCAGCAAUAUUACGAAGC | -3.79 ± 0.18 | -0.785 ± 0.17
26 | UGUCAGCAAUAUUACGAAGU | -4.02 ± 0.46 | -1.93 ± 0.24
27 | UGUCAGCAAUAUUACGAAUA | -0.932 ± 0.14 | -1.03 ± 0.11
28 | UGUCAGCAAUAUUACGACGU | -1.31 ± 0.098 | -0.968 ± 0.14
29 | UGUCAGCAAUAUUACGAGUA | -1.31 ± 0.066 | -0.775 ± 0.073
30 | UGUCAGCAAUAUUACGAUUG | -0.341 ± 0.076 | 0.249 ± 0.12
31 | UGUCAGCAAUAUUACGCACC | -1.28 ± 0.18 | -0.269 ± 0.21
32 | UGUCAGCAAUAUUACGCAUA | -0.485 ± 0.06 | 0.0762 ± 0.068
33 | UGUCAGCAAUAUUACGCGAA | -0.455 ± 0.069 | 0.0551 ± 0.085
34 | UGUCAGCAAUAUUACGCUCU | -0.884 ± 0.15 | -0.226 ± 0.13
35 | UGUCAGCAAUAUUACGCUGA | -0.7 ± 0.23 | -0.59 ± 0.27
36 | UGUCAGCAAUAUUACGCUUG | -1.09 ± 0.066 | -0.432 ± 0.089
37 | UGUCAGCAAUAUUACGCUUU | -1.13 ± 0.091 | 0.276 ± 0.09
38 | UGUCAGCAAUAUUACGGACC | -0.173 ± 0.15 | -2.33 ± 0.17
